Values quoted from earlier work in PMC7431755, “Automated high-content imaging for cellular uptake, from the Schmuck cation to the latest cyclic oligochalcogenides” (Beilstein Journal of Organic Chemistry, 2020).
Like-named read-outs stand apart in the source and are kept apart here.

Test system: HGM cells
Procedure: The CP50 value of 7.3 ± 0.5 µM obtained for 25 outperformed the CP50 value of 14.9 ± 0.5 μM of the previously reported cell-penetrating streptavidin, in which four asparagusic acids are covalently bound to the protein through irreversible triazole linkages. The CP50 value of 7.3 ± 0.5 µM of 25 was not far above the CP50 value of 3.1 ± 0.5 µM of HIV Tat, the original CPP [55]. As the uptake efficiency generally decreases with the size, this similarity is particularly impressive, considering that the COC carrying a 52 kDa protein is compared to a small undecapeptide.

| Substance | CP50 (CAPA) [µM] | CP50 [µM] |
| --- | --- | --- |
| HIV Tat: the original CPP, a small undecapeptide | 3.1 ± 0.5 | – |
| cell-penetrating streptavidin: previously reported streptavidin with four asparagusic acids covalently bound through irreversible triazole linkages | – | 14.9 ± 0.5 |
